{"source": "paper PMC7642679", "test_in_all_cases": "SEC", "key": {"[1]": {"molecular_target": "spike-6P (HexaPro) SARS-CoV-2 spike protein construct (SARS-CoV-2)"}, "[2]": {"molecular_target": "spike-6P D614G with the RBD replacement A419V (SARS-CoV-2)"}, "[3]": {"molecular_target": "spike-6P D614G with the RBD replacement A522V (SARS-CoV-2)"}, "[4]": {"molecular_target": "spike-6P D614G with the RBD replacement E484Q (SARS-CoV-2)"}, "[5]": {"molecular_target": "spike-6P D614G with the RBD replacement F338L (SARS-CoV-2)"}, "[6]": {"molecular_target": "spike-6P D614G with the RBD replacement G446V (SARS-CoV-2)"}, "[7]": {"molecular_target": "spike-6P D614G with the RBD replacement R408T (SARS-CoV-2)"}, "[8]": {"molecular_target": "spike-6P D614G with the RBD replacement S373P (SARS-CoV-2)"}, "[9]": {"molecular_target": "spike-6P with the D614G substitution (SARS-CoV-2)"}}, "data": [{"substance": "spike-6P (HexaPro) SARS-CoV-2 spike protein construct", "values": [{"measurement": "stoichiometry N", "setting": "[1]", "value": 3}]}, {"substance": "spike-6P D614G with the RBD replacement A419V", "values": [{"measurement": "stoichiometry N", "setting": "[2]", "value": 3}]}, {"substance": "spike-6P D614G with the RBD replacement A522V", "values": [{"measurement": "stoichiometry N", "setting": "[3]", "value": 3}]}, {"substance": "spike-6P D614G with the RBD replacement E484Q", "values": [{"measurement": "stoichiometry N", "setting": "[4]", "value": 3}]}, {"substance": "spike-6P D614G with the RBD replacement F338L", "values": [{"measurement": "stoichiometry N", "setting": "[5]", "value": 3}]}, {"substance": "spike-6P D614G with the RBD replacement G446V", "values": [{"measurement": "stoichiometry N", "setting": "[6]", "value": 3}]}, {"substance": "spike-6P D614G with the RBD replacement R408T", "values": [{"measurement": "stoichiometry N", "setting": "[7]", "value": 3}]}, {"substance": "spike-6P D614G with the RBD replacement S373P", "values": [{"measurement": "stoichiometry N", "setting": "[8]", "value": 3}]}, {"substance": "spike-6P with the D614G substitution", "values": [{"measurement": "stoichiometry N", "setting": "[9]", "value": 3}]}]}
